The chains are these.
B1: GFP-tagged PRR14 (1-212) wild-type fragment [human] / Heterochromatin Protein 1 beta (HP1β) [human (endogenous in Lenti-X 293T)] (parent complex)
chain 1: MDLPGDSSPPGQPRLCRQPLTRALWGARSPKRPRLQLPGAPSPLEKASRRVLAVVLEDVMAVHMVPVVPSKQTSIPQHHSYHQDPVHRQPPASPPRQAGWSSQARPPDPLCLCREPLSRIHRTSSTLRRRSRTTPGPEEGPSQKVDRAPQPTLVVMLEDIASPRPPAEGFIDETPNFIIPAQRAEPMRIVRQPTPPPGDLEPPFQPSALPAD
chain 2: not shown
B2: GFP-tagged PRR14 (1-212) wild-type fragment [human] / Heterochromatin Protein 1 gamma (HP1γ) [human (endogenous in Lenti-X 293T)] (parent complex)
chain 1: B1 chain 1
chain 2: not shown

Our source for the response values is PMC9839372 (2023).

The variants in one experiment derive from B1. The experiment in a line: co-immunoprecipitation (anti-GFP IP) with Western blot, band intensity quantified; lysates of 293T cells expressing GFP-PRR14 (1-212) constructs; n = 3 independent immunoprecipitations; parent: 91; read off a plot.
For chain 1 V54E, chain 1 V55E, the response was about 35. The same measure, in the same setting: to chain 1 V154E, chain 1 V155E belongs about 91. Still for that read-out and setting: to chain 1 V54E, chain 1 V55E, chain 1 V154E, chain 1 V155E belongs about 43.

Variants of B2 are the subject of the next experiment. Kind of experiment: co-immunoprecipitation (anti-GFP IP) with Western blot, band intensity quantified; lysates of 293T cells expressing GFP-PRR14 (1-212) constructs; n = 3 independent immunoprecipitations; parent: 95; read off a plot.
Take chain 1 V54E, chain 1 V55E: the response was about 17. chain 1 V154E, chain 1 V155E: the response was about 95. As to chain 1 V54E, chain 1 V55E, chain 1 V154E, chain 1 V155E, the response is about 6.
